Source: article PMC5415421

Target: WDR74 isoform II, C-terminal GFP (human)
Assay: co-IP

B1: Full-length mouse NVL2 (1–855), N-terminal One-Strep-Flag tag (enzyme)
chain: MKPRPGVFVDRKLKQRVIQYLSSNRCGKYVDTGILASDLQRLYSVDYGRRKRNAFRIQVEKVFSIISSEKELKNLKELEDGHLAKRARQDEEDEYTESYSDDDSNMEDYPDPQSANPMNSSLLSLYRRGNSESVSTTPKWGQREATTSTPLLTSKTGSVPLKTPARESEGGWFIDKTPGGKKESLPLDLSDDQSNSKKQDSEIQILKDSSLLESDKKRKGRAKGKGNKRKTENLQEVDGEIEALLQKKAKARSTELQISNVKFEDVGGNDATLKEVCKMLIHMRHPEVYQHLGVVPPRGVLLHGPPGCGKTLLAHAIAGELDLPILKVAAPEIVSGVSGESEQKLRELFDQAVSNAPCIVFIDEIDAITPKREVASKDMERRIVAQLLTCMDDLNNVAATARVLVIGATNRPDSLDPALRRAGRFDREVCLGIPDEAARERILQTLCRKLRLPETFNFCHLAHLTPGFVGADLMALCREAAMCAVNRVLMKQQAQQKKKPEIEGLPSEGDQEERLGAEPTSETQDELQRLLGLLRDQDPLSEEQMQGLCIELNDFIVALAEVQPSAKREGFVTVPNVTWADIGALEDIRDELIMAILAPVRNPDQFRTLGLGTPAGILLAGPPGCGKTLLAKAVANESGLNFISVKGPELLNMYVGESERAVRQVFQRAKNSAPCVIFFDEVDALCPRRSDRETGASVRVVNQLLTEMDGLETRQQVFILAATNRPDIIDPAILRPGRLDKTLFVGLPPPADRVAILKTITKNGTKPPLDEDVNLETIANDLRCNCYTGADLTALVREASLCALRQEITAQKNGVGAGELKVSHKHFEDAFKKVKPSISIKDQVMYEALQRSLSQ
In the case of B1, the relative amount of NVL2 bound to the resin is reported as 9.2%.
